Consider three molecules from patent publication US20220365100A1 (Janssen / Centocor, published 2022).

Assay [1] addresses T1, recombinant IL-17 (human IL-17, interleukin 17A) (human, UniProt Q16552 24-155).
T1 construct: Serial dilutions of recombinant IL-17 from 1 ng/ml in ELISA; also called IL-17A; CTLA8
Kind of assay: competition in sandwich ELISA: IL-17A mixed with 10ug/ml modulator, free IL-17A detected with DuoSet DY317 (MAB317 capture, BAF317 detection). For orientation: In an ELISA, binding on a coated surface is turned into a signal by an enzyme label.

For assay [2], the target named is T1, recombinant IL-17 (human IL-17, …). Kind of assay: sandwich ELISA: AF-317 coated as capture, mAb4538 as detection, IL-17A titrated.

Where a chain is given by its changes, count along the chain named.

T1 sequence (Q16552 24-155 limits assumed): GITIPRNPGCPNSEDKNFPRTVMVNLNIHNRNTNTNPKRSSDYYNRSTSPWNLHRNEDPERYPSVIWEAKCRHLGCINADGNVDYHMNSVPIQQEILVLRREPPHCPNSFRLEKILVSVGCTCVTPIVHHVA

B1: mAb7024 (antibody, human IgG1, lambda, V domains shown)
VH: QVQLVQSGAEVKKPGSSVKVSCKASGGTFSSYAISWVRQAPGQGLEWMGSIIPWFGTTNYAQKFQGRVTITADESTSTAYMELSSLRSEDTAVYYCARDSEYYFDHWGQGTLVTVSS
VL: DIQMTQSPSSVSASVGDRVTITCRASQGISNWLNWYQQKPGKAPKLLIYAASSLQSGVPSRFSGSGSGTDFTLTISSLQPEDFATYYCQQYSDDPTFGQGTKVEIKG
notes: also called LM modulator of IL-17
For B1, the binding result in assay [1] is reported as “binds”.

B2: mAb4538 (antibody, human IgG1, lambda, V domains shown)
VH: QVQLQQSGPGLVKPSQTLSLTCAISGDSVSSSSAAWGWIRQSPSRGLEWLGRISYRSKWYNDYAVSVKSRITINPDTSKNQFSLQLNSVTPEDTAVYYCAREVDSMYYSYFDIWGQGTLVTVSS
VL: EIVLTQSPATLSLSPGERATLSCRASQNVWAFYLAWYQQKPGQAPRLLIYGASNRATGIPARFSGSGSGTDFTLTISSLEPEDFAVYYCQQYRSTLSLTFGQGTKVEIKG
notes: also called detection agent; anti-IL-17 antibody from Janssen Biotech, Inc
For the molecule B2, the binding result in assay [2] was “binds”.

B3: mAb732 (antibody, human IgG1, lambda, V domains shown)
VH: B2 VH
VL: B2 VL with Q90T, R93Y, T95S, L96P
notes: as for B1
On to B3, for which the binding result in assay [1] was “binds”.
